In patent US20080146500A1, “Selective Vpac2 Receptor Peptide Agonists” (priority 2004, published 2008) one finds IC50 and EC50 data, which are given here for 4 substances.

One assay addresses T1, human VPAC1 (Homo sapiens, UniProt P32241).
T1 construct: expressed in transfected cells
T1 sequence (P32241 31-457): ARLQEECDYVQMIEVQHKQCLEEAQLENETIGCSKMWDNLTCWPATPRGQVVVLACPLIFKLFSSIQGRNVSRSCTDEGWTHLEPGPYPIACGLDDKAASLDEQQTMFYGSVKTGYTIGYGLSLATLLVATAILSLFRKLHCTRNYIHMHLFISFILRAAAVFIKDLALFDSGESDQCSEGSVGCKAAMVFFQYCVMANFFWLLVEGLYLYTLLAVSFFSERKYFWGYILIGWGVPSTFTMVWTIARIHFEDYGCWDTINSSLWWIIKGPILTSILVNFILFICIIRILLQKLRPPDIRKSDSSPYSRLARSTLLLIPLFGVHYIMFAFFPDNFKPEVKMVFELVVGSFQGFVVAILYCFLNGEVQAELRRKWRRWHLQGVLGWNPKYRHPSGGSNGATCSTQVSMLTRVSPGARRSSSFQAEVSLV
As to the kind of experiment: Filter binding assay, membranes from cells transiently transfected with human VPAC1, 125I-labeled VIP tracer. The note with it: read-out: Human receptor binding (IC50; nM) VPAC1. The procedure: (§1) For this assay, the solutions and equipment include:
(§2) Presoak solution: 0.5% Polyethyleneamine in Aqua dest.
(§3) Buffer for flushing filter plates: 25 mM HEPES pH 7.4
(§4) Blocking buffer: 25 mM HEPES pH 7.4; 0.2% protease free BSA
(§5) Assay buffer: 25 mM HEPES pH 7.4; 0.5% protease free BSA
(§6) Dilution and assay plate: PS-Microplate, U form
(§7) Filtration Plate Multiscreen FB Opaque Plate; […] Type B Glasfiber filter
(§8) In order to prepare the filter plates, the presoak solution is aspirated by vacuum filtration. The plates are flushed twice with 200 μL flush buffer. 200 μL blocking buffer is added to the filter plate. The filter plate is then incubated with 200 μL presoak solution for 1 hour at room temperature.
(§9) The assay plate is filled with […] (2.5 μg) suspended in assay buffer, 25 μL compound (agonist) in assay buffer, and 25 μL tracer (about 40000 cpm) in assay buffer. The filled plate is incubated for 1 hour with shaking.
(§10) The transfer from assay plate to filter plate is conducted. The blocking buffer is aspirated by vacuum filtration and washed two times with flush buffer. 90 μL is transferred from the assay plate to the filter plate. The 90 μL transferred from assay plate is aspirated and washed three times with 200 μL flush buffer. The plastic support is removed. It is dried for 1 hour at 60° C. 30 μL Microscint is added. The count is performed.
(§11) Values reported are single results or the mean of two or more independent runs.

Another assay addresses T2, rat VPAC2 receptor (Rattus norvegicus, UniProt P35000).
T2 construct: expressed in transfected cells; host or cells: CHO-PO cells, transient
T2 sequence (P35000 23-437): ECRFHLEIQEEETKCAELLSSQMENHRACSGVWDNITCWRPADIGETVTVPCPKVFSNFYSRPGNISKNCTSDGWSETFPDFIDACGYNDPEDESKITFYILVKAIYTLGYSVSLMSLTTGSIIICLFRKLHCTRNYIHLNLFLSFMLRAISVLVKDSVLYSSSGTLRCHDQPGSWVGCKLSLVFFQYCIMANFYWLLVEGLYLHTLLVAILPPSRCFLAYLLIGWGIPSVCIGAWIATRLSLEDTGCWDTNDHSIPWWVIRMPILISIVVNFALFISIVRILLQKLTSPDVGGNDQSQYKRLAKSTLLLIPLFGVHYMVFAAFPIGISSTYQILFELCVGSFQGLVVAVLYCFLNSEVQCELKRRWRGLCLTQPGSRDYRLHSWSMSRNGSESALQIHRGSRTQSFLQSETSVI
Nature of the assay: Rat VPAC2 in vitro potency (cAMP generation, DiscoveRx) in transiently transfected CHO-PO cells. It counts as cell-based. The conditions noted are these: CHO-PO cells transiently transfected with rat VPAC2; read-out: rVPAC2 in vitro potency (cAMP generation) EC50. The protocol:
Rat receptor selectivity is estimated by comparing functional potency (cAMP generation) in CHO-PO cells transiently expressing rat VPAC1 or rat VPAC2 receptors. CHO-PO cells transiently expressing rat VPAC1 or VPAC2, are seeded with 10,000 cells/well three days before the assay. The cells are kept in 200 μL culture medium. […] The stimuli are present for 30 minutes. The assay buffer is then gently removed.

The next assay addresses T3, human VPAC2 (Homo sapiens, UniProt P41587).
T3 construct: expressed in transfected cells
T3 sequence (P41587 24-438): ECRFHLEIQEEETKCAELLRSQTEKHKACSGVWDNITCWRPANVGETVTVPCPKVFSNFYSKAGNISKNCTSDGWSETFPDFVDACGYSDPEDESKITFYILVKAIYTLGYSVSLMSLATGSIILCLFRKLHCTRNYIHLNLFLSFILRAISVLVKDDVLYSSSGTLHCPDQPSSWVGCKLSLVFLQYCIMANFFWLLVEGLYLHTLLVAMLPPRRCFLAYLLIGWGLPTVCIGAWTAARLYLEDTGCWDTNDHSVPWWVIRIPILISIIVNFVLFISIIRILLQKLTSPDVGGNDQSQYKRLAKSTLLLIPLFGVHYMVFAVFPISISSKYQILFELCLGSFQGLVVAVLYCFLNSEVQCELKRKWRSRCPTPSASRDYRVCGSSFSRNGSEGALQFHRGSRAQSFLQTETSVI
Nature of the assay: Alpha screen in vitro potency: human VPAC2-R mediated cAMP generation. Format: cell-based. The conditions noted are these: single results or mean of two or more independent runs.

The next assay deals with T4, human PAC1 (Homo sapiens, UniProt P41586).
T4 construct: expressed in transfected cells
T4 sequence (P41586 21-468): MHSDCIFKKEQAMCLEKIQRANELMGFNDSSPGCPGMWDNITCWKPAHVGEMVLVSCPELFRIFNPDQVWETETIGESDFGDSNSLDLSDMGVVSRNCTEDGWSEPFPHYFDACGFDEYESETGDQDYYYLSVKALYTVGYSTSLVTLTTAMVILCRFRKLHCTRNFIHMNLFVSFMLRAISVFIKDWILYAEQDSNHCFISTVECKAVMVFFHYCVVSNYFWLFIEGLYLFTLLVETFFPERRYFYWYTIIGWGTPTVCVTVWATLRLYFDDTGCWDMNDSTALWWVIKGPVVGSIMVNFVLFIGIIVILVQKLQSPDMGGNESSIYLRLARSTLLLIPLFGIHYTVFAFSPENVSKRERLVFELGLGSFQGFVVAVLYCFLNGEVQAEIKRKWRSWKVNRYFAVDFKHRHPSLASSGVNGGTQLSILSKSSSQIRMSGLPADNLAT
Nature of the assay: Filter binding assay, membranes from cells transiently transfected with human PAC1, 125I-labeled PACAP-27 tracer. The note with it: read-out: Human receptor binding (IC50; nM) PAC1. The protocol:
as §1, §2, §3, §4, §5, §6, §7, §8, §9, §10, §11

Ends that are not written are not given here.

For the substance “C6-HDAVFTEQY(OMe)TOrnLRAibQVAAAibOrnYLQSIOrnOrnGGPSSGAPPPC(PEG60K)-NH2 [Agonist P404]”, the results for the half-inhibitory concentration (IC50) with human VPAC1 and in the assay with human PAC1 were over 3000 nM and over 25000 nM, respectively. Besides, the EC50 amounted to 24.4 nM with rat VPAC2 receptor and 17 nM in the assay with human VPAC2.
In the case of “C6-HSDAVFTDNYTOrnLRAibQVAAAibKYLQC(PEG40K)IOrnNOrnGGPSSGAPPPS (HSDAVFTDNYTXLRXQVAAXKYLQCIXNXGGPSSGAPPPS; non-natural residues) [Agonist P373]”, the half-maximal inhibitory concentration (IC50) in the assay with human VPAC1 and with human PAC1 was over 25000 nM throughout. The EC50 in the assay with rat VPAC2 receptor turned out to be 72.2 nM; with human VPAC2, 33.9 nM.
On to “C6-HSDAVFTEQY(OMe)TOrnLRAibQVAK(CO(CH2)2SPEG40K)AibOrnYLQSIOrnOrnGGPSSGAPPPS-NH2 (HSDAVFTEQYTXLRXQVAXXXYLQSIXXGGPSSGAPPPS; non-natural residues) [Agonist P432]”, for which the IC50 with human VPAC1 was over 3000 nM; with human PAC1 it was over 25000 nM. Also, the EC50 with rat VPAC2 receptor is 16.7 nM; with human VPAC2, 20.1 nM.
For “P137: PEGylated material obtained from P120 and methoxy-PEG2-MAL-40K (HSDAVFTDNYTRLRKQVAAKKYLQSIKNKRYGGPSSGAPPPC; also: PEGylated with methoxy-PEG2-MAL-40K, site not given here) [Agonist P137]”, in that order: 853 nM, over 25000 nM, 8 nM and 8.31 nM.

As a reminder, the IC50 is the concentration needed to halve the response being measured.
